# ± gives the standard deviation of the averaged measurements.
# Test system: Saccharomyces cerevisiae
# Assay: protein stability index of tFT-peptide fusion (C-terminal peptide) (PSI (0-1 scale)); higher = more stable (slower turnover)
# Settings: genetic background: wild type; temperature: 30 C
# 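Also: PSI is a weighted mean of sequencing reads over stability bins, variants kept only with over 10 reads, mCherry proximal and sfGFP distal, peptide attached via GGGS linker.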
row,Sequence,protein stability index
1,PPLPPRPQTHLH,0.728 ± 0.074
2,PPLPPSPPAPPP,0.629 ± 0.0019
3,PPLPPSSPPPSS,0.6605 ± 0.0028
4,PPLPPTLSSIVI,0.599 ± 0.021
5,PPLPRPHHPYRR,0.708 ± 0.025
6,PPLRPPRPHQHS,0.636 ± 0.039
7,PPLSVLPFRFIL,0.575 ± 0.048
8,PPLTHASPLHLI,0.585 ± 0.021
9,PPLTRRSTLMSY,0.591 ± 0.042
10,PPLVPPTPAFPP,0.623 ± 0.028
11,PPNLLPPLSPSL,0.678 ± 0.08
12,PPPAAPPSSPLL,0.765 ± 0.071
13,PPPAPLPPRSSS,0.638 ± 0.086
14,PPPAPPLTFGHV,0.6852 ± 0.0031
15,PPPAPRPPASPP,0.69815 ± 0.00052
16,PPPAPRTPPLLP,0.736 ± 0.029
17,PPPDPPRHGRPE,0.684 ± 0.035
18,PPPDRLPPAHLP,0.721 ± 0.029
19,PPPFLPLCFPPL,0.691 ± 0.032
20,PPPFPPPPLFPL,0.714 ± 0.032
21,PPPGPPAVANRL,0.701 ± 0.072
22,PPPGPSPPPSPH,0.683 ± 0.074
23,PPPGPSRRPAAL,0.726 ± 0.017

row,Sequence,protein stability index
1,PPPHPHPFSLAL,0.691 ± 0.017
2,PPPHPLALPPPP,0.74 ± 0.03
3,PPPHPPPPLPPP,0.617 ± 0.01
4,PPPHPPPPPLPS,0.635 ± 0.021
5,PPPHPPRPPVPR,0.697 ± 0.016
6,PPPHRPPPRPPR,0.697 ± 0.0094
7,PPPHSPLPAPPR,0.76 ± 0.086
8,PPPLASLSPASP,0.624 ± 0.05
9,PPPLATPTPTRP,0.688 ± 0.17
10,PPPLLPPHPPGL,0.701 ± 0.0096
11,PPPLLPPLDAPS,0.721 ± 0.083
12,PPPLLSPAFFLP,0.727 ± 0.053
13,PPPLPGSLLPLP,0.72349 ± 0.00037
14,PPPLPPLPTALS,0.693 ± 0.0036
15,PPPLPPRMPPPF,0.72 ± 0.036
16,PPPLPRSPPPPF,0.74 ± 0.021
17,PPPLPSSPSPLL,0.679 ± 0.022
18,PPPLSLTPPFLY,0.673 ± 0.074
19,PPPLSPPTPPPP,0.674 ± 0.049
20,PPPLSSPGPPPL,0.704 ± 0.014
21,PPPLTPSPPPPP,0.663 ± 0.021
22,PPPLTYPTSPPS,0.661 ± 0.019
23,PPPNLSSGVPFI,0.7051 ± 0.0025

row,Sequence,protein stability index
1,PPPPALWPPPSP,0.735 ± 0.013
2,PPPPASPPHAPP,0.653 ± 0.07
3,PPPPFPLPSPSL,0.655 ± 0.022
4,PPPPGKTDRPSH,0.695 ± 0.055
5,PPPPGPGSAPPP,0.59 ± 0.065
6,PPPPGPPPLPLP,0.764 ± 0.058
7,PPPPGSKPPPSP,0.722 ± 0.028
8,PPPPHPPFPPRF,0.722 ± 0.047
9,PPPPHPPPSLRA,0.67716 ± 6e-05
10,PPPPHRSHLPHS,0.697 ± 0.03
11,PPPPLPPAPPLP,0.6607 ± 8.2e-05
12,PPPPLPPRPSPP,0.71 ± 0.074
13,PPPPLPSFPSSS,0.858 ± 0.062
14,PPPPLTPPHLSP,0.713 ± 0.039
15,PPPPPAPLPSSL,0.671 ± 0.02
16,PPPPPCSPPSPP,0.681 ± 0.025
17,PPPPPHPPPHTR,0.678 ± 0.017
18,PPPPPLHSSPWL,0.737 ± 0.14
19,PPPPPLLLPPPA,0.651 ± 0.038
20,PPPPPLLTRPLP,0.699 ± 0.081
21,PPPPPLPRSSLS,0.6968 ± 0.0041
22,PPPPPPAPPSPA,0.726 ± 0.051
23,PPPPPPHPLLST,0.708 ± 0.073

row,Sequence,protein stability index
1,PPPPPPLFPSPP,0.772 ± 0.13
2,PPPPPPLHATPL,0.6969 ± 0.0065
3,PPPPPPLSPCPS,0.704 ± 0.099
4,PPPPPPLSRTST,0.723 ± 0.082
5,PPPPPPPALPSL,0.6668 ± 0.0034
6,PPPPPPPAPPPC,0.7243 ± 0.0033
7,PPPPPPPDPVPP,0.645 ± 0.039
8,PPPPPPPHPPHL,0.728 ± 0.031
9,PPPPPPPLVPPS,0.595 ± 0.036
10,PPPPPPPPCGTP,0.633 ± 0.014
11,PPPPPPPPPCSP,0.7052 ± 0.0024
12,PPPPPPPPPPPL,0.677 ± 0.028
13,PPPPPPPPPPTL,0.712 ± 0.028
14,PPPPPPPPRLTP,0.754 ± 0.074
15,PPPPPPPPRPLL,0.787 ± 0.16
16,PPPPPPPPSSSL,0.6819 ± 0.0041
17,PPPPPPPSPLAP,0.707 ± 0.015
18,PPPPPPSPPLSP,0.677 ± 0.028
19,PPPPPPSPPPSP,0.633 ± 0.044
20,PPPPPPYHPTPP,0.6685 ± 0.0011
21,PPPPPRAPPLPP,0.679 ± 0.029
22,PPPPPRAPSLLA,0.704 ± 0.03
23,PPPPPRPSPRPS,0.796 ± 0.013

row,Sequence,protein stability index
1,PPPPPSRPPPAL,0.7405 ± 0.0049
2,PPPPPSSPPALL,0.663 ± 0.058
3,PPPPPTFPVLTS,0.603 ± 0.046
4,PPPPPTLPSCLS,0.689 ± 0.063
5,PPPPPTRLPQNS,0.694 ± 0.062
6,PPPPRPLPSSNG,0.76 ± 0.049
7,PPPPRPPATPFP,0.676 ± 0.052
8,PPPPRPPPPATL,0.662 ± 0.02
9,PPPPRPPPVPPF,0.61 ± 0.048
10,PPPPRPPRDPPR,0.6629 ± 0.00098
11,PPPPRPSPPPPS,0.694 ± 0.028
12,PPPPRPSSPLIL,0.741 ± 0.021
13,PPPPRSSPSPLP,0.668 ± 0.077
14,PPPPRVLSPAWS,0.649 ± 0.072
15,PPPPSLAPRSAL,0.724 ± 0.048
16,PPPPSLLPPSPS,0.702 ± 0.068
17,PPPPSLPPPLPL,0.698 ± 0.022
18,PPPPSLVPPSPL,0.677 ± 0.063
19,PPPPSPPSPPPP,0.677 ± 0.0094
20,PPPPSPRPRPAP,0.657 ± 0.025
21,PPPPSRLPYNPF,0.662 ± 0.023
22,PPPPTPLPPPHD,0.652 ± 0.037
23,PPPRPPLPPPPS,0.727 ± 0.034

row,Sequence,protein stability index
1,PPPRPPSTTSPC,0.7037 ± 0.0047
2,PPPRPRPPPRPP,0.581 ± 0.021
3,PPPRPTHSRPGP,0.64 ± 0.057
4,PPPSHYHSQGHN,0.686 ± 0.016
5,PPPSPHRLDHLT,0.704 ± 0.016
6,PPPSPLPSPPPP,0.5916 ± 0.0031
7,PPPSPLPSPPPS,0.746 ± 0.043
8,PPPSPPLPIPPS,0.697 ± 0.022
9,PPPSPPSPLSPP,0.675 ± 0.073
10,PPPSSLVPFPLP,0.7295 ± 0.0053
11,PPPSSPTSGHSP,0.771 ± 0.19
12,PPPSTGGTRSNV,0.6809 ± 0.0051
13,PPPTLSPPPPPL,0.75 ± 0.034
14,PPPTPHPLRRTP,0.735 ± 0.069
15,PPPTPSPPPLPP,0.5748 ± 0.0057
16,PPPTPTFPVPPH,0.6021 ± 0.00058
17,PPPTSPPRPASP,0.697 ± 0.059
18,PPPVAPRSPAHL,0.713 ± 0.074
19,PPPVPPLPSPLP,0.649 ± 0.022
20,PPPVPPPSPPPT,0.641 ± 0.07
21,PPPVSLFSPRSL,0.781 ± 0.099
22,PPQPTTPFPSPQ,0.6788 ± 0.0063
23,PPQRHTTPTSWG,0.75862 ± 0.00034

row,Sequence,protein stability index
1,PPQTSVASRPTR,0.695 ± 0.019
2,PPRASPRMPAGC,0.71506 ± 3.7e-05
3,PPRGDPRAYLPP,0.654 ± 0.011
4,PPRNPAALPTPI,0.718 ± 0.11
5,PPRPLAPSPTLF,0.679 ± 0.021
6,PPRPLPPHPLLL,0.681 ± 0.049
7,PPRPLPPPRPSS,0.691 ± 0.037
8,PPRPLPPSLPPP,0.695 ± 0.037
9,PPRPPFPLPSPL,0.703 ± 0.025
10,PPRPPLHPLRLL,0.6651 ± 0.0013
11,PPRPPLPRPLPP,0.657 ± 0.041
12,PPRPPPNTPLPA,0.725 ± 0.035
13,PPRPPPPHHVPS,0.677 ± 0.093
14,PPRPPSSPLPPR,0.733 ± 0.055
15,PPRPSSRVPPPA,0.65 ± 0.059
16,PPRPTPLPHAPP,0.681 ± 0.02
17,PPRPTPYPPLPP,0.674 ± 0.062
18,PPRRPSFAPPHL,0.704 ± 0.014
19,PPRSIPLPSPFH,0.741 ± 0.016
20,PPRSPHLPRSSL,0.664 ± 0.069
21,PPSHGYPPRLIP,0.67842 ± 0.00022
22,PPSHPLSPLSRL,0.722 ± 0.067

# From the supplement of paper PMC10724198
